T1: wild type human MIC-1 (human, UniProt Q99988 197-308)
T1 construct: also called wtMIC-1; hMIC-1
T1 sequence: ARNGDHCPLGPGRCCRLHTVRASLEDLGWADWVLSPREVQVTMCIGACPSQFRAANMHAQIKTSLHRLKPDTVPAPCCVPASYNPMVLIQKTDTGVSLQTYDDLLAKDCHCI

B1: hGFRAL_C2_Fab_HPC4 (receptor)
chain: CLEVAEACVGDVVCNAQLASYLKACSANGNPCDLKQCQAAIRFFYQNIPFNIAQMLAFCDCAQSDIPCQQSKEALHSKTCAVNMVPPPTGGGGSGGGGSDVVMTQTPLSLPVSLGDQASISCRSSQSLLHSNGNTYLHWYLQKPGQSPKLLIYKVSNRFSGVPDRFSGSGSGTDFTLKISRVEAEDLGVYFCSQSTHVPWTFGGGTKLEIKRADAAPTVSIFPPSSEQLTSGGASVVCFLNNFYPKDINVKWKIDGSERQNGVLNSWTDQDSKDSTYSMSSTLTLTKDEYERHNSYTCEATHKTSTSPIVKSFNRNEC
heavy: EVQIQESGPSLVKPSQTLSLTCSVSGDSITSGYWNWIRKFPGHKIEYMGTISYSGDTYYNPSLKSRISITRDTSKNQYYLHLNSVTTEDTATYYCARYGSYVFDYWGQGTTLTVSSAKTTPPSVYPLAPGSAAQTNSMVTLGCLVKGYFPEPVTVTWNSGSLSSGVHTFPAVLQSDLYTLSSSVTVPSSTWPSETVTCNVAHPASSTKVDKKIVPRDCGGGGSEDQVDPRLIDGK
notes: C2 = amino acid 131-219 of UniProt Q6UXV0
B2: hGFRAL_C1C2_Fab_HPC4 (receptor)
chain: QTNNCTYLREQCLRDANGCKHAWRVMEDACNDSDPGDPCKMRNSSYCNLSIQYLVESNFQFKECLCTDDFYCTVNKLLGKKCINKSDNVKEDKFKWNLTTRSHHGFKGMWSCLEVAEACVGDVVCNAQLASYLKACSANGNPCDLKQCQAAIRFFYQNIPFNIAQMLAFCDCAQSDIPCQQSKEALHSKTCAVNMVPPPTGGGGSGGGGSDVVMTQTPLSLPVSLGDQASISCRSSQSLLHSNGNTYLHWYLQKPGQSPKLLIYKVSNRFSGVPDRFSGSGSGTDFTLKISRVEAEDLGVYFCSQSTHVPWTFGGGTKLEIKRADAAPTVSIFPPSSEQLTSGGASVVCFLNNFYPKDINVKWKIDGSERQNGVLNSWTDQDSKDSTYSMSSTLTLTKDEYERHNSYTCEATHKTSTSPIVKSFNRNEC
heavy: EVQIQESGPSLVKPSQTLSLTCSVSGDSITSGYWNWIRKFPGHKIEYMGTISYSGDTYYNPSLKSRISITRDTSKNQYYLHLNSVTTEDTATYYCARYGSYVFDYWGQGTTLTVSSAKTTPPSVYPLAPGSAAQTNSMVTLGCLVKGYFPEPVTVTWNSGSLSSGVHTFPAVLQSDLYTLSSSVTVPSSTWPSETVTCNVAHPASSTKVDKKIVPRDCGGGGSEDQVDPRLIDGK
B3: hGFRAL_C2C3_Fab_HPC4 (receptor)
chain: CLEVAEACVGDVVCNAQLASYLKACSANGNPCDLKQCQAAIRFFYQNIPFNIAQMLAFCDCAQSDIPCQQSKEALHSKTCAVNMVPPPTCLSVIRSCQNDELCRRHYRTFQSKCWQRVTRKCHEDENCISTLSKQDLTCSGSDDCKAAYIDILGTVLQVQCTCRTITQSEESLCKIFQHMLHRKSCFNYPTLSNVKGMALYTRKHANKITLTGFHSPFNGEGGGGSGGGGSDVVMTQTPLSLPVSLGDQASISCRSSQSLLHSNGNTYLHWYLQKPGQSPKLLIYKVSNRFSGVPDRFSGSGSGTDFTLKISRVEAEDLGVYFCSQSTHVPWTFGGGTKLEIKRADAAPTVSIFPPSSEQLTSGGASVVCFLNNFYPKDINVKWKIDGSERQNGVLNSWTDQDSKDSTYSMSSTLTLTKDEYERHNSYTCEATHKTSTSPIVKSFNRNEC
heavy: EVQIQESGPSLVKPSQTLSLTCSVSGDSITSGYWNWIRKFPGHKIEYMGTISYSGDTYYNPSLKSRISITRDTSKNQYYLHLNSVTTEDTATYYCARYGSYVFDYWGQGTTLTVSSAKTTPPSVYPLAPGSAAQTNSMVTLGCLVKGYFPEPVTVTWNSGSLSSGVHTFPAVLQSDLYTLSSSVTVPSSTWPSETVTCNVAHPASSTKVDKKIVPRDCGGGGSEDQVDPRLIDGK

In the experiment the target is T1, wild type human MIC-1. Description: SPR; GFRAL fragment as analyte over immobilised wtMIC-1; relative to hGFRAL(ECR) set as 100%. On the procedure: MIC-1 interactions with soluble GFRAL fragments were assessed by SPR-based binding assay. A Biacore® 4000 (GE Healthcare, Piscataway, N.J., USA) instrument was used for SPR-based binding assay. The assays were performed at 25° C. at flow rates of 30 μL/minute in 1× HBS-P running buffer (BR-1006-71, GE Healthcare, Piscataway, N.J., USA). Purified GFRAL fragments at various concentrations were run as flow-through analyte and wtMIC-1 was immobilized as ligand. Please see FIG. 6 and Table 5.
B1: the “% of Binding” value was 21%.
Consider B2, for which the “% of Binding” value is 87%.
The result for B3 reads 8%.

The record behind these values is US20190025332A1 (Novo Nordisk, published 2019).
